Broadly, the Km is the concentration of substrate that gives half-maximal velocity. What is called kcat is the maximal rate divided by the concentration of active sites. As usually defined, the kcat/Km is the turnover number divided by the Michaelis constant.

Substrate in the data set: C/C(=C\COP(=O)(O)OP(=O)(O)O)CC[C@@H]1[C@@]2(C)CCCC(C)(C)[C@@H]2CC[C@@]1(C)O
The experiment in a line: steady-state kinetics. The following applies: mean ± SE of three experiments; assay conditions only in the supplement. In kind it is biochemical, Salvia sclarea.

B1: sclareol synthase from Salvia sclarea (SsSS) (Salvia sclarea) (protein)
chain: AKMKENFKREDDKFPTTTTLRSEDIPSNLCIIDTLQRLGVDQFFQYEINTILDNTFRLWQEKHKVIYGNVTTHAMAFRLLRVKGYEVSSEELAPYGNQEAVSQQTNDLPMIIELYRAANERIYEEERSLEKILAWTTIFLNKQVQDNSIPDKKLHKLVEFYLRNYKGITIRLGARRNLELYDMTYYQALKSTNRFSNLCNEDFLVFAKQDFDIHEAQNQKGLQQLQRWYADCRLDTLNFGRDVVIIANYLASLIIGDHAFDYVRLAFAKTSVLVTIMDDFFDCHGSSQECDKIIELVKEWKENPDAEYGSEELEILFMALYNTVNELAERARVEQGRSVKEFLVKLWVEILSAFKIELDTWSNGTQQSFDEYISSSWLSNGSRLTGLLTMQFVGVKLSDEMLMSEECTDLARHVCMVGRLLNDVCSSEREREENIAGKSYSILLATEKDGRKVSEDEAIAEINEMVEYHWRKVLQIVYKKESILPRRCKDVFLEMAKGTFYAYGINDELTSPQQSKEDMKSFVF
For the protein B1, the Km was 7 ± 2 µM, the turnover number (kcat) amounted to 0.53 ± 0.04 s⁻¹ and the kcat/Km is 76000 M⁻¹ s⁻¹.

B2: sclareol synthase from Salvia sclarea (SsSS) (Salvia sclarea; N431I) (protein)
chain: AKMKENFKREDDKFPTTTTLRSEDIPSNLCIIDTLQRLGVDQFFQYEINTILDNTFRLWQEKHKVIYGNVTTHAMAFRLLRVKGYEVSSEELAPYGNQEAVSQQTNDLPMIIELYRAANERIYEEERSLEKILAWTTIFLNKQVQDNSIPDKKLHKLVEFYLRNYKGITIRLGARRNLELYDMTYYQALKSTNRFSNLCNEDFLVFAKQDFDIHEAQNQKGLQQLQRWYADCRLDTLNFGRDVVIIANYLASLIIGDHAFDYVRLAFAKTSVLVTIMDDFFDCHGSSQECDKIIELVKEWKENPDAEYGSEELEILFMALYNTVNELAERARVEQGRSVKEFLVKLWVEILSAFKIELDTWSNGTQQSFDEYISSSWLSIGSRLTGLLTMQFVGVKLSDEMLMSEECTDLARHVCMVGRLLNDVCSSEREREENIAGKSYSILLATEKDGRKVSEDEAIAEINEMVEYHWRKVLQIVYKKESILPRRCKDVFLEMAKGTFYAYGINDELTSPQQSKEDMKSFVF
Regarding B2, the Km was 6 ± 1 µM, the kcat is 0.38 ± 0.02 s⁻¹ and the catalytic efficiency (kcat/Km) was 63000 M⁻¹ s⁻¹.

B3: sclareol synthase from Salvia sclarea (SsSS) (Salvia sclarea; N431Q) (protein)
chain: AKMKENFKREDDKFPTTTTLRSEDIPSNLCIIDTLQRLGVDQFFQYEINTILDNTFRLWQEKHKVIYGNVTTHAMAFRLLRVKGYEVSSEELAPYGNQEAVSQQTNDLPMIIELYRAANERIYEEERSLEKILAWTTIFLNKQVQDNSIPDKKLHKLVEFYLRNYKGITIRLGARRNLELYDMTYYQALKSTNRFSNLCNEDFLVFAKQDFDIHEAQNQKGLQQLQRWYADCRLDTLNFGRDVVIIANYLASLIIGDHAFDYVRLAFAKTSVLVTIMDDFFDCHGSSQECDKIIELVKEWKENPDAEYGSEELEILFMALYNTVNELAERARVEQGRSVKEFLVKLWVEILSAFKIELDTWSNGTQQSFDEYISSSWLSQGSRLTGLLTMQFVGVKLSDEMLMSEECTDLARHVCMVGRLLNDVCSSEREREENIAGKSYSILLATEKDGRKVSEDEAIAEINEMVEYHWRKVLQIVYKKESILPRRCKDVFLEMAKGTFYAYGINDELTSPQQSKEDMKSFVF
As to B3, the Km stood at 10 ± 1 µM, the catalytic constant (kcat) is 0.47 ± 0.02 s⁻¹ and the kcat/Km is 47000 M⁻¹ s⁻¹.

For the origin of these results see article PMC5921835.
